Test results from patent US7879571B2, “Population based assessments and means to rank the relative immunogenicity of proteins” (Danisco US Inc., priority 2003, dated 2011).
“Also recorded” adds a separate entry of the source.

B1: ALCALASE ®: ALCALASE® enzyme, commercially available from Novo; Swissprot accession number P00780 (protein, UniProt P00780 106-379, looked up)
Subtilisin Carlsberg: AQTVPYGIPLIKADKVQAQGFKGANVKVAVLDTGIQASHPDLNVVGGASFVAGEAYNTDGNGHGTHVAGTVAALDNTTGVLGVAPSVSLYAVKVLNSSGSGSYSGIVSGIEWATTNGMDVINMSLGGASGSTAMKQAVDNAYAKGVVVVAAAGNSGSSGNTNTIGYPAKYDSVIAVGAVDSNSNRASFSSVGAELEVMAPGAGVYSTYPTNTYATLNGTSMASPHVAGAAALILSKHPNLSASQVRNRLSSTATYLGSSFYYGKGLINVEAAAQ
B2: E6 33: human papillomavirus E6 protein, HPV strain 33 (protein, UniProt P06427 1-149, looked up)
Protein E6: MFQDTEEKPRTLHDLCQALETTIHNIELQCVECKKPLQRSEVYDFAFADLTVVYREGNPFGICKLCLRFLSKISEYRHYNYSVYGNTLEQTVKKPLNEILIRCIICQRPLCPQEKKRHVDLNKRFHNISGRWAGRCAACWRSRRRETAL
B3: E7 31: HPV E7 protein, HPV strain 31 (protein, UniProt P17387 1-98, looked up)
Protein E7: MRGETPTLQDYVLDLQPEATDLHCYEQLPDSSDEEDVIDSPAGQAEPDTSNYNIVTFCCQCKSTLRLCVQSTQVDIRILQELLMGSFGIVCPNCSTRL
B4: E7 45: HPV E7 protein, HPV strain 45 (protein, UniProt P21736 1-106, looked up)
Protein E7: MHGPRETLQEIVLHLEPQNELDPVDLLCYEQLSESEEENDEADGVSHAQLPARRAEPQRHKILCVCCKCDGRIELTVESSAEDLRTLQQLFLSTLSFVCPWCATNQ
B5: sTNFR1: soluble tumor necrosis factor receptor 1, a soluble recombinant cytokine receptor molecule (protein, UniProt P19438 30-211, looked up)
extracellular domain: LVPHLGDREKRDSVCPQGKYIHPQNNSICCTKCHKGTYLYNDCPGPGQDTDCRECESGSFTASENHLRHCLSCSKCRKEMGQVEISSCTVDRDTVCGCRKNQYRHYWSENLFQCFNCSLCLNGTVHLSCQEKQNTVCTCHAGFFLRENECVSCSNCKKSLECTKLCLPQIENVKGTEDSGTT
modifications: extracellular domain
B6: E6 16: human papillomavirus E6 protein, HPV strain 16 (protein, UniProt P03126 1-158, looked up)
Protein E6: MHQKRTAMFQDPQERPRKLPQLCTELQTTIHDIILECVYCKQQLLRREVYDFAFRDLCIVYRDGNPYAVCDKCLKFYSKISEYRHYCYSLYGTTLEQQYNKPLCDLLIRCINCQKPLCPEEKQRHLDKKQRFHNIRGRWTGRCMSCCRSSRTRRETQL
B7: E7 33: HPV E7 protein, HPV strain 33 (protein, UniProt P06429 1-97, looked up)
Protein E7: MRGHKPTLKEYVLDLYPEPTDLYCYEQLSDSSDEDEGLDRPDGQAQPATADYYIVTCCHTCNTTVRLCVNSTASDLRTIQQLLMGTVNIVCPTCAQQ
B8: E6 31: human papillomavirus E6 protein, HPV strain 31 (protein, UniProt P17386 1-149, looked up)
Protein E6: MFKNPAERPRKLHELSSALEIPYDELRLNCVYCKGQLTETEVLDFAFTDLTIVYRDDTPHGVCTKCLRFYSKVSEFRWYRYSVYGTTLEKLTNKGICDLLIRCITCQRPLCPEEKQRHLDKKKRFHNIGGRWTGRCIACWRRPRTETQV
B9: BPN′ variant: BPN′ Y217L variant where prominent responses to amino acids 70-84 and 109-123 were reduced to background level (protein, UniProt P00782 108-382, looked up, variant Y217L)
Subtilisin BPN': AQSVPYGVSQIKAPALHSQGYTGSNVKVAVIDSGIDSSHPDLKVAGGASMVPSETNPFQDNNSHGTHVAGTVAALNNSIGVLGVAPSASLYAVKVLGADGSGQYSWIINGIEWAIANNMDVINMSLGGPSGSAALKAAVDKAVASGVVVVAAAGNEGTSGSSSTVGYPGKYPSVIAVGAVDSSNQRASFSSVGPELDVMAPGVSIQSTLPGNKYGALNGTSMASPHVAGAAALILSKHPNWTNTQVRSSLENTTTKLGDSFYYGKGLINVQAAAQ

How the values were obtained:
[1] = system: 18 different HLA-DR and -DQ proteins; experiment: HLA class II peptide binding competition assay, panel of 18 alleles; design: species or system human; conditions: good binders: IC50 less than 500 nM
Method: FIG. 17 provides a table showing the IC50 binding values for epitope peptides identified in bacterial proteases by the I-MUNE® assay system of the present invention. Values less than 500 nM are considered to be good binders and are highlighted in bold in the Table. Degeneracy indicates the number of HLA class II proteins that bind with an IC50 of less than 500 nM out of the 18 total alleles tested.
In addition to the above I-MUNE® assay, peptide binding assays were also performed. The peptide binding assay used during the development of the present invention is known in the art (Southwood et al., J. Immunol., 160:3363-3373 [1998]). Briefly, HLA-DR and -DQ molecules were purified from a panel of EBV transformed cell lines. A competition assay was performed with a characterized standard peptide, and the unknown peptide. The amount of unknown peptide required to compete 50% of the standard peptide binding was then determined (indicated as the IC50).
The IC50 for HLA class II protein binding was determined for peptide epitopes defined by the in two related industrial bacterial proteases (See, FIG. 17). The peptides were tested in a competition assay for binding to 18 different HLA-DR and -DQ proteins. […] This likely explains the association seen in the data for a response to this peptide with HLA-DR6(13) donors (p=0.00015; relative risk=7.22, n=113 donors tested). […]

CD4+ T-cells = experiment: I-MUNE assay: CD4+ T-cell proliferation with dendritic cells and 15-mer peptides offset by 3 amino acids, community donors; conditions: for Background % / Structure Value / Response/Peptide: Table 3; for Response/Peptide: donors with SI>2.95 per peptide; for Background +/- sd / Responses/peptide found: Table 5
Method: Peptides were resuspended in DMSO at approximately 1 to 2 mg/ml, and stored at −70° C. prior to use. Each peptide was tested at least in duplicate, although for small peptide sets (e.g., Ber e 1), the peptides were routinely tested in triplicate.
Volunteer donor human blood buffy coat samples were obtained from two commercial sources (Stanford Blood Center, Palo Alto, Calif., and the Sacramento Medical Foundation, Sacramento, Calif.). Buffy coat samples were further purified by density separation. Each sample was HLA typed for HLA-DR and HLA-DQ using a commercial PCR-based kit (Bio-Synthesis).
Monocytes were purified by adherence to plastic in AIM V medium (Gibco/Life Technologies). Adherent cells were cultured in AIM V media containing 500 units/ml of recombinant human IL-4 (Endogen) and 800 units/ml recombinant human GM-CSF (Endogen) for 5 days. On day 5, recombinant human IL-1α (Endogen) and recombinant human TNF-α (Endogen) were added to 50 units/ml and 0.2 units/ml, respectively. On day 7, the fully matured dendritic cells were treated with 50 ug/ml mitomycin C (Sigma) for 1 hour at 37° C. Treated dendritic cells were dislodged with 50 mM EDTA in PBS, washed in AIM V medium, counted, and resuspended in AIM V media at 2×10^5 cells/ml.
CD4^+ T-cells were purified by negative selection from frozen aliquots of human peripheral blood mononuclear cells (PBMC) using Cellect CD4 columns (Cedarlane). CD4^+ T-cell populations were routinely >80% pure and >95% viable as judged by trypan blue (Sigma) exclusion. CD4^+ T-cells were resuspended in AIM V media at 2×10^6 cells per ml.
CD4^+ T-cells and dendritic cells were plated in round-bottomed 96 well format plates at 100 ul of each cell mix per well. Peptide was added to a final concentration of approximately 5 ug/ml in 0.25-0.5% DMSO. Control wells contained 0.5% DMSO without added peptide. Each peptide was tested in duplicate. Cultures were incubated at 37° C., in 5% CO2 for 5 days. On day 5, 0.5 uCi of tritiated thymidine (NEN DuPont,) was added to each well. On day 6, the cultures were harvested onto glass fiber mats using a TomTec manual harvester (TomTec), then processed for scintillation counting. Proliferation was assessed by determining the average counts per minute (CPM) value for each set of duplicate wells (TriLux Beta).
For each individual buffy coat sample, the average CPM values for all of the peptides were analyzed. The average CPM values for each peptide were divided by the average CPM value for the control (DMSO only) wells to determine the “stimulation index” (SI). Donors were tested with each peptide set until an average of at least two responses per peptide were compiled. The data for each protein was graphed showing the percent responders to each peptide within the set. A positive response was collated if the SI value was equal to or greater than 2.95. This value was chosen as it approximates a difference of three standard deviations in a normal population distribution. For each protein assessed, positive responses to individual peptides by individual donors were compiled. To determine the background response for a given protein, the percent responders for each peptide in the set were averaged and a standard deviation was calculated. SI values for each donor were compiled for each peptide set, and the percent of responders reported.

PBMC = experiment: Maximum proliferative response of PBMC from 30 community donors to inactivated whole protein; assay type: cell-based, human; conditions: inactivated enzymes, 5 to 40 ug/ml, 30 donors; p<0.01; listed as protease variant
Method: FIG. 9 provides a graph showing the maximum proliferative responses of PBMC from 30 community donors to BPN′ Y217L (open triangles, structure value=0.53) and the […] BPN′ Y217L variant (closed squares, structure value=0.40). Each donor's maximum response is shown on the y-axis. An SI of 2.0 was the cut-off for a “positive” response. The difference in proliferative responses between BPN′ Y217L and the variant was p<0.01.
In these experiments, PMBC from thirty community donors were tested parametrically with either the whole protein parent enzyme (BPN′ Y217L) or the variant protease. The enzymes were inactivated, and tested over a dose range from 5 to 40 ug/ml. […] The difference between optimal SI values for the two proteins tested on these thirty donors was significant, with a two-tailed parametric t-test value of p<0.01.

Molecule | Background % (CD4+ T-cells) | Structure Value (CD4+ T-cells) | Response/Peptide (CD4+ T-cells) | other results
BPN' Y217L #24: 15-mer epitope peptide number 24 of BPN′ Y217L, first epitope (amino acids 70-84) (GTVAALNNSIGVLGV; UniProt P00782 177-191, looked up, fragment) | – | – | – | HLA class II binding (in words) [1]: binds most HLA class II molecules tested
BPN' Y217L#37: 15-mer epitope peptide number 37 of BPN′ Y217L, second epitope (amino acids 109-123) (NGIEWAIANNMDVIN; UniProt P00782 216-230, looked up, fragment) | – | – | – | HLA class II binding (in words) [1]: promiscuous
E6 18: human papillomavirus E6 protein, HPV strain 18 | 4.23% | 0.79 | 2.32 | Background response in words (compared with the 11 industrial enzymes) (CD4+ T-cells): not significantly different; Background +/- sd (CD4+ T-cells): 4.23 +/− 4.25; Responses/peptide found (CD4+ T-cells): 2.32
E7 16: HPV E7 protein, HPV strain 16 | 4.33% | 0.66 | 3.9 | –
E7 18: HPV E7 protein, HPV strain 18 | 3.55% | 0.44 | 3.19 | –
hTpo: human thrombopoietin, a cytokine whose expression is restricted to the bone marrow | – | – | – | Structure value in words (CD4+ T-cells): comparatively high; Background +/- sd (CD4+ T-cells): 2.54 +/− 2.23
B1 | – | – | – | Prominent responses (amino acids / peptide positions) (CD4+ T-cells; regions of the protein sequence): 19-33
B2 | 2.83% | 0.68 | 1.97 | –
B3 | 5.26% | 0.78 | 3.1 | –
B4 | 3.75% | 0.76 | 2.44 | –
B5 | – | – | – | Background +/- sd (CD4+ T-cells): 2.23 +/− 1.95
B6 | 7.12% | 0.72 | 3.92 | Background response in words (compared with the 11 industrial enzymes) (CD4+ T-cells): significantly higher; Background +/- sd (CD4+ T-cells): 7.12 +/− 6.48; Responses/peptide found (CD4+ T-cells): 3.92
B7 | 4.32% | 0.54 | 2.55 | –
B8 | 4.66% | 0.53 | 3.26 | –
B9 | – | – | – | Prominent Epitope (CD4+ T-cells; Table 4, number of prominent epitopes): 0; Structure value of variant (CD4+ T-cells; calculated from the 113-donor dataset with responses to 70-84 and 109-123 reduced to background levels): 0.40; Proliferation compared with the parent protein (in words) (PBMC): significantly less proliferation; also recorded: induced less proliferation
